From doi:10.1101/2022.07.02.498517 come the findings set out here.

The assay addresses human ATP synthase complex (human (endogenous in HEK293T)). As to the kind of experiment: native gel or EMSA. On the technique in general: Mobility shift assays separate free from complexed probe on a gel.

As for human ATP synthase complex, the stoichiometry N came to 2.

For orientation: stoichiometry N means the number of molecules, sites or subunits per partner or assembly.
